{"source": "patent US8772007", "about": "(dated 2014)", "key": {"[1]": {"target": "the molecule itself", "assay": "self-association; Sephadex 200 sizing column, fractions assayed for pNB activity; standards 669 kDa 16 ml, 158 kDa 24 ml, 43 kDa 26 ml, 14 kDa 32 ml"}, "[2]": {"target": "S279_M70aE8 metagenomic GDSL-type esterase", "assay": "self-association; Sephadex 200 sizing column, fractions assayed for pNB activity; standards 669 kDa 16 ml, 158 kDa 24 ml, 43 kDa 26 ml, 14 kDa 32 ml"}}}
{"binder": "Sinorhizobium meliloti SmeI (SMa1993) (enzyme) MTINSHSWRTLMVEKRSVLCFGDSLTWGWIPVKGSSPTLRYPYEQRWTGAMAARLGDGYHIIEEGLSARTTSLDDPNDARLNGSTYLPMALASHLPLDLVIIMLGTNDTKSYFHRTPYEIANGMGKLVGQVLTCAGGVGTPYPAPKVLVVAPPPLAPMPDPWFEGMFGGGYEKSKELSGLYKALADFMKVEFFAAGDCISTDGIDGIHLSAETNIRLGHAIADKVAALF", "values": [{"measurement": "elution volume", "setting": "[1]", "result": 24, "unit": "mL"}]}
{"binder": "Salmonella typhimurium Stm (AAC38796) (enzyme, Described as an outer membrane localized autotransporter protein; also called Sty) FDSLTVIGDSLSDTGNNGRWTWDSGQNKLYDEQLAERYGLELSPSSNGGSNYAAGGATATPELNPQDNTADQVRQWLAKTGGKADHNGLYIHWVGGNDLAAAIAQPTMAQQIAGNSATSAAAQVGLLLDAGAGLVVVPNVPDISATPMLLEAVITAGLGAAAPPALKAALDALAEGATPDFASRQQAIRKALLAAAATVSSNPFIQQLLVEQLLAGYEAAAGQASALTDYYNQMEEKGLEQHGGNIARADINGLFKEILANPQAFGLTNTVGMACPPGVSASACSSAMPGFNASQDYVFADHLHPGPQVHTIIAQYIQSIIAAPVQATYLNQSVQSMAQGSRTTLDSRYQQLRQGENPVGSLGMFGGYSGGYQRYDNNEADGNGNHNNLTVGVDYQLNEQVLLGGLIAGSLDKQHPDDNYRYDARGFQAAVFSHLRAGQAWLDSDLHFLSAKFSNIQRSITLGALRRVEEGETNGRLSGASLTSGYDFVMVPWLTTGPMLQYAWDYSHVNGYSEKLNTSTSMRFGDQNAHSQVGSAGWRLDLRHSIIHSWAQINYRRQFGDDTYVANGGLKSTALTFSRDGKTQDKNWVDIAIGADFPLSATVSAFAGLSQTAGLSDGNQTRYNVGFSARF", "values": [{"measurement": "elution volume", "setting": "[1]", "result": 24, "unit": "mL"}]}
{"binder": "Sinorhizobium meliloti RSM02162 (G00355) (enzyme, Synthetic gene G00355, expressed in E. coli from pMC355rbs; also called pMC355rbs) MVEKRSVLCFGDSLTWGWIPVKESSPTLRYPYEQRWTGAMAARLGDGYHIIEEGLSARTTSLDDPNDARLNGSTYLPMALASHLPLDLVIIMLGTNDTKSYFHRTPYEIANGMGKLVGQVLTCAGGVGTPYPAPKVLVVAPPPLAPMPDPWFEGMFGGGYEKSKELSGLYKALADFMKVEFFAAGDCISTDGIDGIHLSAETNIRLGHAIADKVAALF", "values": [{"measurement": "elution volume", "setting": "[1]", "result": 24, "unit": "mL"}]}
{"binder": "Mesorhizobium loti Mlo I (Q98MY5) (enzyme, Expressed in E. coli from pET26_Mlo; also called pET26_Mlo; pET26_MlO) MKTVLCYGDSLTWGYNAEGGRHALEDRWPSVLQAALGAGVQVIADGLNGRTTAFDDHLAGADRNGARLLPTVLTTHAPIDLIIFMLGANDMKPWIHGNPVAAKQGIQRLIDIVRGHDYPFDWPAPQILIVAPPVVSRTENADFKEMFAGGDDASKFLAPQYAALADEAGCGFFDAGSVAQTTPLDGVHLDAENTREIGKALTPIVRVMLEL", "values": [{"measurement": "elution volume", "setting": "[1]", "result": 24, "unit": "mL"}]}
{"binder": "S279_M70aE8 metagenomic GDSL-type esterase (enzyme) MPKIAKLAPSDVIVAFGDSLTFGTGATEAESYPIVLAQLIGRTVVRAGVPGEVTEGGLARLTDVIEEHKPKLIIVCLGGNDMLRKVQEDQTRANLRAIIKTIKAQGIAVVLVGVPKPALVTSAPPFYEEIAKEFGIPYEGKIVTDVLYQRDQKSDSIHPNAKGYRRMAEAIATLLKKSGAI", "values": [{"measurement": "elution volume", "setting": "[2]", "result": 32, "unit": "mL"}]}
{"binder": "S261_M2aA12 metagenomic GDSL-type esterase (enzyme, Metagenomic clone; also called pET26_m2aA12) MKNILAFGDSLTWGFVAGQDARHPFETRWPNALAAGLGGKARVIEEGQNGRTTVFDDAATFESRNGSVALPLLLISHQPLDLVIIMLGTNDIKFAARCRAFDASMGMERLIQIVRSANYMKGYKIPEILIISPPSLVPTQDEWFNDLWGHAIAESKLFAKHYKRVAEELKVHFFDAGTVAVADKTDGGHLDAVNTKAIGVALVPVVKSILAL", "values": [{"measurement": "elution volume", "setting": "[1]", "result": 24, "unit": "mL"}]}
{"binder": "Sinorhizobium meliloti SmeII (Q92XZ1) (enzyme, Expressed in E. coli from pET26_SmeII; also called pET26_SmeII) MEETVARTVLCFGDSNTHGQVPGRGPLDRYRREQRWGGVLQGLLGPNWQVIEEGLSGRTTVHDDPIEGSLKNGRTYLRPCLQSHAPLDLIIIMLGTNDLKRRFNMPPSEVAMGIGCLVHDIRELSPGRTGNDPEIMIVAPPPMLEDLKEWESIFSGAQEKSRKLALEFEIMADSLEAHFFDAGTVCQCSPADGFHIDEDAHRLLGEALAQEVLAIGWPDA", "values": [{"measurement": "elution volume", "setting": "[1]", "result": 24, "unit": "mL"}]}
{"binder": "Moraxella bovis Mbo (AAK53448) (enzyme, Described as an outer membrane localized autotransporter protein; also called pET26_Mbo) KEFSQVIIFGDSLSDTGRLKDMVARKDGTLGNTLQPSFTTNPDPVWSSLFAQSYGKTASPNTPDNPTGTNYAVGGARSGSEVNWNGFVNVPSTKTQITDHLTATGGKADPNTLYAIWIGSNDLISASQATTTAEAQNAIKGAVTRTVIDIETLNQAGATTILVPNVPDLSLTPRAIYGESLMAGVQDKAKLASSLYNSGLFEALNQSTANIIPANTFALLQEATTNKEAFGFKNTQGVACQMPARTTGADDVASTSLACTKANLIENGANDTYAFADDIHPSGRTHRILAQYYRSIMDAPTHMGKLSGELVKTGSAHDRHVYRQLDRLSGSQHSIWANVYASDRTDPTTQIGLDVAGSSSHTGAYLSHQNQDYVLDDTLSSDVKTIGMGLYHRHDIGNVRLKGVAGIDRLSVDTHRHIDWEGTSRSHTADTTARRFHAGLQASYGIDMGKATVRPLIGVHAQKVKVNDMTESESTLSTAMRFGEQEQKSLQGEIGVDVAYPISPALTLTGGIAHAHEFNDDERTINATLTSIREYTKGFNTSVSTDKSHATTAHLGVQGQLGKANIHAGVHATHQDSDTDVGGSLGVRLMF", "values": [{"measurement": "elution volume", "setting": "[1]", "result": 24, "unit": "mL"}]}
